Laboratory results taken from patent US20260152527A1 (SIGHTSTREAM BIOTHERAPEUTICS, published 2026).
Starred links: 1 amine or outer side, 2 acyl side, 3 side chain; linkers in the order of their positions; H or OH if unused. Positions of bridges follow the written chain, without caps; N, C: chain ends. Non-standard residues stand in square brackets, D forms with d. Primed or numbered codes have the meaning given here. *: point of attachment. HyPA = 3,5-dihydroxyphenylacetic acid (N-terminal cap), O=C(Cc1cc(O)cc(O)c1)*; MoPA = (3-methoxyphenyl)acetic acid (N-terminal cap), COc1cccc(CC(=O)*)c1; dTyr(Me) = O-methyl-D-tyrosine, COc1ccc(C[C@@H](N[*:1])C(=O)[*:2])cc1; Phe(OCH3) = O-methyl-tyrosine, COc1ccc(C[C@H](N[*:1])C(=O)[*:2])cc1; Hgln = homoglutamine, NC(=O)CCC[C@H](N[*:1])C(=O)[*:2]; Trp(1-Me) = Cn1cc(C[C@H](N)C(=O)O)c2ccccc21; Benzoyl(3,5-(OH)2) = O=C(c1cc(O)cc(O)c1)*; Lys(N3) = [N-]=[N+]=NCCCC[C@H](N)C(=O)O; Orn(N3) = [N-]=[N+]=NCCC[C@H](N)C(=O)O; dPhe(4-F) = N[C@H](Cc1ccc(F)cc1)C(=O)O; Acetyl(4-pyridyl) = O=C(Cc1ccncc1)*; R8 = C=CCCCCCC[C@@](C)(N)C(=O)O; PEG8′ = polyethylene glycol-8; S5 = C=CCCC[C@](C)(N)C(=O)O; Hpra = C#CCC[C@H](N)C(=O)O; dPra = C#CC[C@@H](N)C(=O)O; Nle = CCCC[C@H](N)C(=O)O; Octanoyl = CCCCCCCC(=O)*; Pra = C#CC[C@H](N)C(=O)O

B1: KR-072 (peptide)
peptide: {Benzoyl(3,5-(OH)2)}-[Nle][Lys(N3)]H[dPhe(4-F)]RW[Pra]-NH2
modifications: triazole 2-7; not fully specified; printed as HyBA-Nle-[Lys(N3)-His-Dphe(4-F)-Arg-Trp-Pra]-NH2
B2: KR-009 (peptide)
peptide: Ac-[Nle][Lys(N3)]H[dF]RW[Pra]-NH2
modifications: bridge 2-7; not fully specified (bridges); printed as Ac-Nle-[Lys(N3)-His-DPhe-Arg-Trp-Pra]-NH2
B3: KR-071 (peptide)
peptide: {Benzoyl(3,5-(OH)2)}-[Nle][Lys(N3)]H[dPhe(4-F)]RW[Pra][Hgln]-NH2
modifications: triazole 2-7; not fully specified; printed as HyBA-Nle-[Lys(N3)-His-Dphe(4-F)-Arg-Trp-Pra]-Hgln-NH2
B4: KR-073 (peptide)
peptide: {Benzoyl(3,5-(OH)2)}-[Nle][Lys(N3)]H[dF]RW[Pra]-NH2
modifications: triazole 2-7; not fully specified; printed as HyBA-Nle-[Lys(N3)-His-DPhe-Arg-Trp-Pra]-NH2
B5: KR-049 (peptide)
peptide: Ac-[Nle][Lys(N3)]H[dPhe(4-F)]RW[Pra]-NH2
modifications: triazole 2-7
B6: KR-008 (peptide)
peptide: Ac-[Nle][Lys(N3)]HFRW[Pra]-NH2
modifications: triazole 2-7
B7: KR-074 (peptide)
peptide: {Acetyl(4-pyridyl)}-[Nle][Lys(N3)]H[dF]RW[Pra]-NH2
modifications: triazole 2-7; not fully specified; printed as PyAA-Nle-[Lys(N3)-His-DPhe-Arg-Trp-Pra]-NH2
B8: KR-068 (peptide)
peptide: Ac-[Nle][Orn(N3)]H[dF]RW[Hpra]K-NH2
modifications: triazole 2-7; not fully specified; printed as Ac-Nle-[Orn(N3)-His-DPhe-Arg-Trp-Hpra]-Lys-NH2
B9: KR-006 (peptide)
peptide: Ac-SYSMEHFRWGK-NH2
B10: KR-061 (peptide)
peptide: Ac-[Nle][Lys(N3)][Phe(OCH3)][dF]RW[Pra]K-NH2
modifications: triazole 2-7; not fully specified; printed as Ac-Nle-[Lys(N3)-Phe(OCH3)-DPhe-Arg-Trp-Pra]-Lys-NH2
B11: KR-067 (peptide)
peptide: Ac-[Nle][Pra]H[dF]RW[Lys(N3)]K-NH2
modifications: triazole 2-7; not fully specified; printed as Ac-Nle-[Pra-His-DPhe-Arg-Trp-Lys(N3)]-Lys-NH2
B12: KR-063 (peptide)
peptide: {MoPA-MoPA}-[Nle][Lys(N3)]H[dF]RW[Pra]K-NH2
modifications: triazole 2-7; not fully specified; printed as MoPA-MoPA-Nle-[Lys(N3)-His-DPhe-Arg-Trp-Pra]-Lys-NH2
B13: KR-017 (peptide)
peptide: {Octanoyl-PEG8′}-GGSYSMEHFRWGKPV-NH2
B14: KR-060 (peptide)
peptide: Ac-[Nle][Lys(N3)]H[dF]R[Trp(1-Me)][Pra]K-NH2
modifications: triazole 2-7; not fully specified; printed as Ac-Nle-[Lys(N3)-His-DPhe-Arg-Trp(Me)-Pra]-Lys-NH2
B15: KR-065 (peptide)
peptide: Ac-[Nle][Orn(N3)]H[dF]RW[Pra]K-NH2
modifications: triazole 2-7; not fully specified; printed as Ac-Nle-[Orn(N3)-His-DPhe-Arg-Trp-Pra]-Lys-NH2
B16: KR-057 (peptide)
peptide: Ac-[Nle][Lys(N3)]H[dF]RW[Pra][Hgln]-NH2
modifications: triazole 2-7; not fully specified; printed as Ac-Nle-[Lys(N3)-His-DPhe-Arg-Trp-Pra]-Hgln-NH2
B17: KR-070 (peptide)
peptide: Ac-[Nle][Lys(N3)]H[dF]RW[dPra]K-NH2
modifications: triazole 2-7; not fully specified; printed as Ac-Nle-[Lys(N3)-His-DPhe-Arg-Trp-DPra]-Lys-NH2
B18: KR-010 (peptide)
peptide: Ac-[Lys(N3)]EHFRWG[Pra]-NH2
modifications: triazole 1-8
B19: KR-002 (peptide)
peptide: Ac-SMEHFRWGKPV-NH2
B20: KR-015 (peptide)
peptide: Ac-[R8]EHFRWG[S5]-NH2
modifications: staple 1-8
SMILES: CC(=O)N[C@]1(C)CCCCCCC=CCCC[C@@](C)(C(N)=O)NC(=O)CNC(=O)[C@H](Cc2c[nH]c3ccccc23)NC(=O)[C@H](CCCNC(=N)N)NC(=O)[C@H](Cc2ccccc2)NC(=O)[C@H](Cc2c[nH]cn2)NC(=O)[C@H](CCC(=O)O)NC1=O
B21: KR-007 (peptide)
peptide: Ac-EHFRWGKP-NH2
B22: KR-058 (peptide)
peptide: Ac-[Nle][Lys(N3)]H[dTyr(Me)]RW[Pra]K-NH2
modifications: triazole 2-7; not fully specified; printed as Ac-Nle-[Lys(N3)-His-DTyr(Me)-Arg-Trp-Pra]-Lys-NH2
B23: KR-062 (peptide)
peptide: HyPA-[Nle][Lys(N3)]H[dF]RW[Pra]K-NH2
modifications: triazole 2-7; not fully specified; printed as HyPA-Nle-[Lys(N3)-His-DPhe-Arg-Trp-Pra]-Lys-NH2
B24: KR-066 (peptide)
peptide: Ac-[Nle][Lys(N3)]H[dF]RW[Hpra]K-NH2
modifications: triazole 2-7; not fully specified; printed as Ac-Nle-[Lys(N3)-His-DPhe-Arg-Trp-HPra]-Lys-NH2

Biological target: T1, human recombinant MC4R (CHO-K1/Gα15 stable cell line, GenScript) (human, UniProt P32245 1-332)
T1 sequence (P32245 whole entry): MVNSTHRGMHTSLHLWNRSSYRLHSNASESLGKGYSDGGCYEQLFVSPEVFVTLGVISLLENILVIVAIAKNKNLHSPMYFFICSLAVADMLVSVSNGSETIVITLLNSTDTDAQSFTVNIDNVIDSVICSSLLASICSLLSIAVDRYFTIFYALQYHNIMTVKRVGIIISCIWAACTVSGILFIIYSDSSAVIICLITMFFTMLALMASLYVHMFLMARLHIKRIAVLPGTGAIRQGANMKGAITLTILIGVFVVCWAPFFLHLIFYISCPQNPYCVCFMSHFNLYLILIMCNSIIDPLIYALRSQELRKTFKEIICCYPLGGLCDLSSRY
Experiment: cell-based or functional assay

| EC50(nM)-MC4R | Binder |
| --- | --- |
| 98.6 nM | B1 |
| 45.7 nM | B2 |
| 103 nM | B3 |
| 13.9 nM | B4 |
| 16.1 nM | B5 |

Biological target: T2, human recombinant MC5R (CHO-K1/Ga15 stable cell line, GenScript) (human, UniProt P33032 1-325)
T2 sequence (P33032 whole entry): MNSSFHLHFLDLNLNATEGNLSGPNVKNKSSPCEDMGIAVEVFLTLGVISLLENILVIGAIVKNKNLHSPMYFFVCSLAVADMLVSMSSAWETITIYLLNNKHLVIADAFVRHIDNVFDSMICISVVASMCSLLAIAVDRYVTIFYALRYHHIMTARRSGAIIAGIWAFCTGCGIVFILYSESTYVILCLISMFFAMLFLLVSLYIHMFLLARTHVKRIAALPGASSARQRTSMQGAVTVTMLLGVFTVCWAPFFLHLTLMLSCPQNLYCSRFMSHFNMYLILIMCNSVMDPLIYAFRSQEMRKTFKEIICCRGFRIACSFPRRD
Experiment: cell-based or functional assay

| EC50(nM)-MC5R | Binder |
| --- | --- |
| 78 nM | B1 |
| 140 nM | B2 |
| 73.9 nM | B3 |
| 134 nM | B4 |
| 25.2 nM | B5 |

Biological target: T3, human recombinant MC1R (CHO-K1 stable cell line, GenScript) (human, UniProt Q01726 1-317)
T3 sequence (Q01726 whole entry): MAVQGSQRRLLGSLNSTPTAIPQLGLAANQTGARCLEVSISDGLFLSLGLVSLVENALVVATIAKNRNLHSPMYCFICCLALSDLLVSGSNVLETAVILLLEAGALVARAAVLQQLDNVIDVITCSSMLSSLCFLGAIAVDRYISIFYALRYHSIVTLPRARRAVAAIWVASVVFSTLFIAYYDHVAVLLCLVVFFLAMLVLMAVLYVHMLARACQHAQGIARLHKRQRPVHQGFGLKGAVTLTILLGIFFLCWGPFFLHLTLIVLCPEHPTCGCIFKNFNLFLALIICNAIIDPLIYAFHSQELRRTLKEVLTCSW
Experiment: cell-based or functional assay

| EC50(nM)-MC1R | Binder |
| --- | --- |
| 0.0019 nM | B1 |
| 0.011 nM | B2 |
| 0.0023 nM | B3 |
| 0.0041 nM | B4 |
| 0.019 nM | B5 |

Biological target: T1, human recombinant MC4R (CHO-K1/Gα15 …)
Experiment: cell-based or functional assay
Remark: another data set of the same source

| MC4R IC50 | Binder |
| --- | --- |
| 74.5 nM | B6 |
| 20.2 nM | B7 |
| 21.8 nM | B8 |
| 98.6 nM | B1 |
| 80.9 nM | B9 |
| 45.7 nM | B2 |
| 101 nM | B10 |
| 28.7 nM | B11 |
| 67.1 nM | B12 |
| 139 nM | B13 |
| 67.6 nM | B14 |
| 36 nM | B15 |
| 33.5 nM | B16 |
| 84.1 nM | B17 |
| 103 nM | B3 |
| 452 nM | B18 |
| 34.9 nM | B19 |
| 485 nM | B20 |
| 16.4 nM | B21 |
| 122 nM | B22 |
| 13.9 nM | B4 |
| 44.4 nM | B23 |
| 75.1 nM | B24 |
| 16.1 nM | B5 |

Biological target: human recombinant MC3R (CHO-K1/Gα15 stable cell line, GenScript) (human, UniProt P41968 1-323)
Sequence (P41968 whole entry): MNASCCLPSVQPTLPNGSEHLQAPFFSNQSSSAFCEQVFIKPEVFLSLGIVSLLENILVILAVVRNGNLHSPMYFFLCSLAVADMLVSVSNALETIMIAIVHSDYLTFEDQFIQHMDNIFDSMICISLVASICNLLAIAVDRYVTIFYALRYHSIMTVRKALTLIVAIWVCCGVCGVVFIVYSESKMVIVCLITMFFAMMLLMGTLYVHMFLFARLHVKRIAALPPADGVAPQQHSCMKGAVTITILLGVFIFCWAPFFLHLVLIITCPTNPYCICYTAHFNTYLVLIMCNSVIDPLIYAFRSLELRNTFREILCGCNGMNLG
Experiment: cell-based or functional assay

| MC3R IC50 | Binder |
| --- | --- |
| 1110 nM | B6 |
| 165 nM | B7 |
| 27.6 nM | B8 |
| 224 nM | B9 |
| 51.1 nM | B10 |
| 66.2 nM | B11 |
| 62.8 nM | B12 |
| 310 nM | B13 |
| 260 nM | B14 |
| 91.6 nM | B15 |
| 73.3 nM | B16 |
| 1630 nM | B17 |
| 13600 nM | B18 |
| 176 nM | B19 |
| 3000 nM | B20 |
| 1400 nM | B21 |
| > 50000 nM | B22 |
| 13 nM | B23 |
| 39.9 nM | B24 |

Biological target: T2, human recombinant MC5R (CHO-K1/Ga15 …)
Experiment: cell-based or functional assay
Remark: another data set of the same source

| MC5R IC50 | Binder |
| --- | --- |
| > 10000 nM | B6 |
| 154 nM | B7 |
| 40.4 nM | B8 |
| 78 nM | B1 |
| 122 nM | B9 |
| 140 nM | B2 |
| 150 nM | B10 |
| 79.7 nM | B11 |
| 99.6 nM | B12 |
| 210 nM | B13 |
| 319 nM | B14 |
| 70.2 nM | B15 |
| 107 nM | B16 |
| 376 nM | B17 |
| 73.9 nM | B3 |
| > 10000 nM | B18 |
| 243 nM | B19 |
| > 10000 nM | B20 |
| > 10000 nM | B21 |
| 195 nM | B22 |
| 134 nM | B4 |
| 167 nM | B23 |
| 64 nM | B24 |
| 25.2 nM | B5 |

Biological target: T3, human recombinant MC1R (CHO-K1 stable …)
Experiment: cell-based or functional assay
Remark: another data set of the same source

| MC1R IC50 | Binder |
| --- | --- |
| 0.4 nM | B6 |
| 0.023 nM | B7 |
| 0.04 nM | B8 |
| 0.0019 nM | B1 |
| 0.11 nM | B9 |
| 0.0109 nM | B2 |
| 28 nM | B10 |
| 0.11 nM | B11 |
| 0.05 nM | B12 |
| 0.77 nM | B13 |
| 0.79 nM | B14 |
| 0.027 nM | B15 |
| 0.024 nM | B16 |
| 11.8 nM | B17 |
| 0.0023 nM | B3 |
| 170 nM | B18 |
| 0.44 nM | B19 |
| 25.8 nM | B20 |
| 1.99 nM | B21 |
| 2.68 nM | B22 |
| 0.0041 nM | B4 |
| 0.03 nM | B23 |
| 0.0047 nM | B24 |
| 0.019 nM | B5 |
